# US20150344570A1 (published 2015)
# T1: FcγRIIb (human, UniProt P31994 43-217)
# T1 construct: extracellular domain; also called FcgRIIb; CD32B
# T1 sequence (looked up): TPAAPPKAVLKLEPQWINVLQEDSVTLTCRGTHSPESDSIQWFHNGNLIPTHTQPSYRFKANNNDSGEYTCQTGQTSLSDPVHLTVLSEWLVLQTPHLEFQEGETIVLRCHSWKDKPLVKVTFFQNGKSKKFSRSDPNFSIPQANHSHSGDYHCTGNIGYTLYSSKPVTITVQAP
# Columns and labels:
# FcγRIa [1] = target: T2, FcγRIa (human, UniProt P12314 16-292); experiment: ratio of He/Con_1a to He/Con_2b (FcγRIa over FcγRIIb), SPR
# T2 construct: extracellular domain; also called FcgRI; CD64
# Procedure: (§1) The heterodimerized antibodies He Abs in which one of the H chains was introduced with an alteration were assayed for their binding activities to each activating FcγR and inhibitory FcγR according to the method described in Example 4. […] The activating FcγRs in FIGS. 26, 27, 28, and 29 are FcγRIa, FcγRIIa (R), FcγRIIa (H), and FcγRIIIa, respectively.
# (§2) Analysis of interaction between objective antibody and the FcγR was carried out using Biacore T100 (GE Healthcare). HBS-EP+ (GE Healthcare) was used as the running buffer, and the measurement temperature was set to 25° C. Chips produced by immobilizing the antigen peptide by the amine coupling method to a Series S Sencor Chip CM5 (GE Healthcare), or alternatively, chips produced by allowing preliminarily biotinylated antigen peptides to interact with and immobilize onto a Series S Sensor Chip SA (certified) (GE Healthcare) were used. Antibodies of interest were captured onto an antigen peptide-immobilized chip, and allowed to interact to each FcγR diluted with running buffer. To regenerate and repeatedly use the chip, the antibodies captured on the chip were washed off by reacting 10 mM glycine-HCl, pH 1.5.
# FcγRIa [2] = target: T2, FcγRIa; experiment: SPR (Biacore), captured antibody, soluble FcγR; relative to GpH7-A5/GpH7-B3/GpL16-k0 = 100
# Procedure: as §1, §2
# FcγRIIb = target: T1, FcγRIIb; experiment: as above
# Procedure: as §1, §2
# T2 sequence (P12314 16-292): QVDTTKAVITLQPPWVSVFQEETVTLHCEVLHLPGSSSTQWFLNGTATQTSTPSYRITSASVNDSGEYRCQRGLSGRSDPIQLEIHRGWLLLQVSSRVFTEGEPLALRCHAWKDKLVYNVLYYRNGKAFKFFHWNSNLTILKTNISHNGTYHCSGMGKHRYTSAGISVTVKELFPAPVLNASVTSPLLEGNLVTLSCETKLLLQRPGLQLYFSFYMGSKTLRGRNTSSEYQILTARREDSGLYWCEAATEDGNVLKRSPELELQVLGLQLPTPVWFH
Binder,He_1a/2b (Ia/IIb) (FcγRIa [1]),He/Con_1a (FcγRIa [2]),He/Con_2b (FcγRIIb)
"GpH7-A5/GpH7-B3 variant P329_01G/GpL16-k0 (antibody, human IgG1, kappa, He Ab; mutation in the GpH7-B3 chain only; also called He Ab) heavy 1: not shown heavy 2: not shown light: DIVMTQSPLSLPVTPGEPASISCQASESLVHSNRNTYLHWYLQKPGQSPQLLIYKVSNRFSGVPDRFSGSGSGTDFTLKISRVEAEDVGVYYCSQNTHVPPTFGQGTKVEIERTVAAPSVFIFPPSDEQLKSGTASVVCLLNNFYPREAKVQWKVDNALQSGNSQESVTEQDSKDSTYSLSSTLTLSKADYEKHKVYACEVTHQGLSSPVTKSFNRGEC",2.42,101 % of control,41.7 % of control
"GpH7-A5/GpH7-B3 variant A327_16H/GpL16-k0 (antibody, human IgG1, kappa, He Ab; mutation in the GpH7-B3 chain only; also called He Ab) heavy 1: not shown heavy 2: not shown light: DIVMTQSPLSLPVTPGEPASISCQASESLVHSNRNTYLHWYLQKPGQSPQLLIYKVSNRFSGVPDRFSGSGSGTDFTLKISRVEAEDVGVYYCSQNTHVPPTFGQGTKVEIERTVAAPSVFIFPPSDEQLKSGTASVVCLLNNFYPREAKVQWKVDNALQSGNSQESVTEQDSKDSTYSLSSTLTLSKADYEKHKVYACEVTHQGLSSPVTKSFNRGEC",1.52,96.5 % of control,63.5 % of control
"GpH7-A5/GpH7-B3 variant A327_19Q/GpL16-k0 (antibody, human IgG1, kappa, He Ab; mutation in the GpH7-B3 chain only; also called He Ab) heavy 1: not shown heavy 2: not shown light: DIVMTQSPLSLPVTPGEPASISCQASESLVHSNRNTYLHWYLQKPGQSPQLLIYKVSNRFSGVPDRFSGSGSGTDFTLKISRVEAEDVGVYYCSQNTHVPPTFGQGTKVEIERTVAAPSVFIFPPSDEQLKSGTASVVCLLNNFYPREAKVQWKVDNALQSGNSQESVTEQDSKDSTYSLSSTLTLSKADYEKHKVYACEVTHQGLSSPVTKSFNRGEC",1.78,96.2 % of control,54.2 % of control
"GpH7-A5/GpH7-B3 variant A327_20W/GpL16-k0 (antibody, human IgG1, kappa, He Ab; mutation in the GpH7-B3 chain only; also called He Ab) heavy 1: not shown heavy 2: not shown light: DIVMTQSPLSLPVTPGEPASISCQASESLVHSNRNTYLHWYLQKPGQSPQLLIYKVSNRFSGVPDRFSGSGSGTDFTLKISRVEAEDVGVYYCSQNTHVPPTFGQGTKVEIERTVAAPSVFIFPPSDEQLKSGTASVVCLLNNFYPREAKVQWKVDNALQSGNSQESVTEQDSKDSTYSLSSTLTLSKADYEKHKVYACEVTHQGLSSPVTKSFNRGEC",1.24,97.7 % of control,73.8 % of control
"GpH7-A5/GpH7-B3 variant A330_03V/GpL16-k0 (antibody, human IgG1, kappa, He Ab; mutation in the GpH7-B3 chain only; also called He Ab) heavy 1: not shown heavy 2: not shown light: DIVMTQSPLSLPVTPGEPASISCQASESLVHSNRNTYLHWYLQKPGQSPQLLIYKVSNRFSGVPDRFSGSGSGTDFTLKISRVEAEDVGVYYCSQNTHVPPTFGQGTKVEIERTVAAPSVFIFPPSDEQLKSGTASVVCLLNNFYPREAKVQWKVDNALQSGNSQESVTEQDSKDSTYSLSSTLTLSKADYEKHKVYACEVTHQGLSSPVTKSFNRGEC",2.01,106 % of control,52.4 % of control
"GpH7-A5/GpH7-B3 variant A330_06M/GpL16-k0 (antibody, human IgG1, kappa, He Ab; mutation in the GpH7-B3 chain only; also called He Ab) heavy 1: not shown heavy 2: not shown light: DIVMTQSPLSLPVTPGEPASISCQASESLVHSNRNTYLHWYLQKPGQSPQLLIYKVSNRFSGVPDRFSGSGSGTDFTLKISRVEAEDVGVYYCSQNTHVPPTFGQGTKVEIERTVAAPSVFIFPPSDEQLKSGTASVVCLLNNFYPREAKVQWKVDNALQSGNSQESVTEQDSKDSTYSLSSTLTLSKADYEKHKVYACEVTHQGLSSPVTKSFNRGEC",1.3,105 % of control,80.5 % of control
"GpH7-A5/GpH7-B3 variant A330_07I/GpL16-k0 (antibody, human IgG1, kappa, He Ab; mutation in the GpH7-B3 chain only; also called He Ab) heavy 1: not shown heavy 2: not shown light: DIVMTQSPLSLPVTPGEPASISCQASESLVHSNRNTYLHWYLQKPGQSPQLLIYKVSNRFSGVPDRFSGSGSGTDFTLKISRVEAEDVGVYYCSQNTHVPPTFGQGTKVEIERTVAAPSVFIFPPSDEQLKSGTASVVCLLNNFYPREAKVQWKVDNALQSGNSQESVTEQDSKDSTYSLSSTLTLSKADYEKHKVYACEVTHQGLSSPVTKSFNRGEC",1.57,105 % of control,67.1 % of control
"GpH7-A5/GpH7-B3 variant A330_08L/GpL16-k0 (antibody, human IgG1, kappa, He Ab; mutation in the GpH7-B3 chain only; also called He Ab) heavy 1: not shown heavy 2: not shown light: DIVMTQSPLSLPVTPGEPASISCQASESLVHSNRNTYLHWYLQKPGQSPQLLIYKVSNRFSGVPDRFSGSGSGTDFTLKISRVEAEDVGVYYCSQNTHVPPTFGQGTKVEIERTVAAPSVFIFPPSDEQLKSGTASVVCLLNNFYPREAKVQWKVDNALQSGNSQESVTEQDSKDSTYSLSSTLTLSKADYEKHKVYACEVTHQGLSSPVTKSFNRGEC",1.52,107 % of control,70.5 % of control
